Source: paper PMC2631105

Target: rabbit muscle fructose-1,6-bisphosphate aldolase A D128V (rabbit)
Assay: AUC

stoichiometry N: 2
Substance: rabbit muscle fructose-1,6-bisphosphate aldolase A D128V (enzyme)
